Data from the supplement of paper PMC10724198.
± gives the standard deviation of the averaged measurements.

system: Saccharomyces cerevisiae; experiment: protein stability index of tFT-peptide fusion (C-terminal peptide) (PSI (0-1 scale)); higher = more stable (slower turnover); settings: genetic background: wild type; temperature: 30 C
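Also: PSI is a weighted mean of sequencing reads over stability bins, variants kept only with over 10 reads, mCherry proximal and sfGFP distal, peptide attached via GGGS linker.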

Q: Which protein stability index does the source give for TIIRQRHYAPNL here?
A: Its protein stability index is 0.6771 ± 0.0056.

Q: For TIMRGEPGQSHF, which protein stability index is on record?
A: Its protein stability index is 0.741 ± 0.089.

Q: For TIPSSSQVPIGG, which protein stability index is on record?
A: Its protein stability index is 0.641 ± 0.021.

Q: Which protein stability index does the source give for TKEEDKNEGRRR here?
A: Its protein stability index is 0.662 ± 0.055.

Q: With TKFSSPPLVRTS as the sequence, how does the protein stability index read?
A: The protein stability index was 0.71 ± 0.031.

Q: How did the protein stability index turn out when TKKNKLRQKKTE was run?
A: The protein stability index was 0.6457 ± 0.0028.

Q: For TKLKKKGTKKKR, which protein stability index is on record?
A: The protein stability index was 0.662 ± 0.018.

Q: For TKPTRPVSPTHL, which protein stability index is on record?
A: Its protein stability index is 0.693 ± 0.12.

Q: TKQSKRKHESRT was tested. Which protein stability index did it give?
A: Its protein stability index is 0.671 ± 0.044.

Q: Which protein stability index does the source give for TKRLLPPRTVAI here?
A: Its protein stability index is 0.696 ± 0.066.

Q: For TKRRKKIPENRI, which protein stability index is on record?
A: The protein stability index was 0.6649 ± 0.0049.

Q: TKSPYLTVNETA was tested. Which protein stability index did it give?
A: The protein stability index was 0.686 ± 0.055.

Q: How did the protein stability index turn out when TKSRKWEERENQ was run?
A: Its protein stability index is 0.682 ± 0.013.

Q: TKTKKKTQEGSR was tested. Which protein stability index did it give?
A: Its protein stability index is 0.739 ± 0.1.

Q: TLFSVGSDAMIV was tested. Which protein stability index did it give?
A: Its protein stability index is 0.708 ± 0.041.

Q: TLFTRRSIMKGN was tested. Which protein stability index did it give?
A: Its protein stability index is 0.62 ± 0.068.

Q: How did the protein stability index turn out when TLGLTLSAFALT was run?
A: The protein stability index was 0.635 ± 0.043.

Q: For TLLAALIRFDAV, which protein stability index is on record?
A: The protein stability index was 0.691 ± 0.041.

Q: For TLLAPPAPTPAG, which protein stability index is on record?
A: Its protein stability index is 0.684 ± 0.036.

Q: With TLLPPACFPTPP as the sequence, how does the protein stability index read?
A: The protein stability index was 0.717 ± 0.017.

Q: Which protein stability index does the source give for TLPARPSVPLPP here?
A: The protein stability index was 0.629 ± 0.06.

Q: TLPSPPSPSPRP was tested. Which protein stability index did it give?
A: The protein stability index was 0.679 ± 0.085.

Q: Which protein stability index does the source give for TLQKKLTVNTKK here?
A: Its protein stability index is 0.738 ± 0.11.

Q: For TLRPKASPPAAL, which protein stability index is on record?
A: The protein stability index was 0.642 ± 0.021.

Q: TLRTPGFSSSLH was tested. Which protein stability index did it give?
A: The protein stability index was 0.721 ± 0.025.

Q: Which protein stability index does the source give for TLSPPLPPPSPS here?
A: Its protein stability index is 0.66129 ± 0.00029.

Q: For TLSSLVGACLYV, which protein stability index is on record?
A: Its protein stability index is 0.614 ± 0.038.

Q: With TNGVNHIDAHGQ as the sequence, how does the protein stability index read?
A: Its protein stability index is 0.645 ± 0.018.

Q: How did the protein stability index turn out when TNKKEPTMTRKK was run?
A: The protein stability index was 0.72528 ± 0.00042.

Q: How did the protein stability index turn out when TNNLRLKVIGPK was run?
A: Its protein stability index is 0.653 ± 0.021.

Q: Which protein stability index does the source give for TNQITRHELTTY here?
A: The protein stability index was 0.599 ± 0.043.

Q: For TNRNGQQRWEKG, which protein stability index is on record?
A: Its protein stability index is 0.64 ± 0.0078.

Q: Which protein stability index does the source give for TNRRSRLQVSSN here?
A: The protein stability index was 0.635 ± 0.08.

Q: Which protein stability index does the source give for TPAMPRNPTDDS here?
A: Its protein stability index is 0.651 ± 0.0068.

Q: How did the protein stability index turn out when TPAPLLPRRTPP was run?
A: Its protein stability index is 0.734 ± 0.073.

Q: With TPCSRMRPSLLF as the sequence, how does the protein stability index read?
A: The protein stability index was 0.709 ± 0.11.

Q: With TPKTTGRPCDRT as the sequence, how does the protein stability index read?
A: Its protein stability index is 0.69 ± 0.0098.

Q: How did the protein stability index turn out when TPLNPDSLDRPT was run?
A: The protein stability index was 0.657 ± 0.0097.

Q: With TPLNPLYCPPTP as the sequence, how does the protein stability index read?
A: The protein stability index was 0.6384 ± 0.0061.

Q: TPLSPPALPPPS was tested. Which protein stability index did it give?
A: The protein stability index was 0.659 ± 0.074.

Q: With TPLVLTLLTRRP as the sequence, how does the protein stability index read?
A: The protein stability index was 0.709 ± 0.054.

Q: TPPACTRIPPAN was tested. Which protein stability index did it give?
A: Its protein stability index is 0.777 ± 0.12.

Q: For TPPLPPPPPPIH, which protein stability index is on record?
A: The protein stability index was 0.7413 ± 0.0029.

Q: For TPPPPAPSPPPP, which protein stability index is on record?
A: The protein stability index was 0.761 ± 0.059.

Q: Which protein stability index does the source give for TPPPSLPPPPPP here?
A: Its protein stability index is 0.627 ± 0.07.

Q: For TPPRHTRTSQTV, which protein stability index is on record?
A: The protein stability index was 0.648 ± 0.0083.

Q: How did the protein stability index turn out when TPRPRRNCGPGP was run?
A: Its protein stability index is 0.717 ± 0.2.

Q: TPSAPPPTHPYP was tested. Which protein stability index did it give?
A: Its protein stability index is 0.684 ± 0.036.

Q: With TPSPPTLHPPPP as the sequence, how does the protein stability index read?
A: Its protein stability index is 0.691 ± 0.023.

Q: For TPSRLPPPLRSP, which protein stability index is on record?
A: The protein stability index was 0.703 ± 0.004.

Q: With TPTRPLSSALRL as the sequence, how does the protein stability index read?
A: Its protein stability index is 0.697 ± 0.05.

Q: TPVAPGLSPPPL was tested. Which protein stability index did it give?
A: The protein stability index was 0.659 ± 0.066.

Q: TQKKQKRKDQQR was tested. Which protein stability index did it give?
A: Its protein stability index is 0.654 ± 0.01.

Q: Which protein stability index does the source give for TQPDLAPPLPRS here?
A: Its protein stability index is 0.65 ± 0.017.

Q: For TQRLPTPPSIPL, which protein stability index is on record?
A: Its protein stability index is 0.672 ± 0.017.

Q: TQSSADCFTLDA was tested. Which protein stability index did it give?
A: Its protein stability index is 0.719 ± 0.052.

Q: For TQYMRVVQAKPD, which protein stability index is on record?
A: Its protein stability index is 0.659 ± 0.055.

Q: TRDTEKTGRREP was tested. Which protein stability index did it give?
A: Its protein stability index is 0.715 ± 0.0013.

Q: With TRFLRCACCFVC as the sequence, how does the protein stability index read?
A: The protein stability index was 0.565 ± 0.036.

Q: For TRGSRGARGGGW, which protein stability index is on record?
A: Its protein stability index is 0.716 ± 0.012.

Q: With TRKFATPRITVV as the sequence, how does the protein stability index read?
A: Its protein stability index is 0.6939 ± 0.0038.

Q: For TRKQSVIRIRMR, which protein stability index is on record?
A: Its protein stability index is 0.653 ± 0.0082.

Q: TRLAGINGLLSA was tested. Which protein stability index did it give?
A: Its protein stability index is 0.689 ± 0.022.

Q: TRLDLIDSLRHL was tested. Which protein stability index did it give?
A: Its protein stability index is 0.731 ± 0.044.

Q: With TRLLPQRPLGGV as the sequence, how does the protein stability index read?
A: The protein stability index was 0.717 ± 0.046.

Q: Which protein stability index does the source give for TRMPTRRNEQIY here?
A: Its protein stability index is 0.683 ± 0.047.

Q: Which protein stability index does the source give for TRMRWCGSGVKN here?
A: The protein stability index was 0.809 ± 0.067.

Q: TRPLIRRRHWID was tested. Which protein stability index did it give?
A: The protein stability index was 0.697 ± 0.025.

Q: TRPSRRPPRPSS was tested. Which protein stability index did it give?
A: Its protein stability index is 0.753 ± 0.22.

Q: For TRPTPTRADCFG, which protein stability index is on record?
A: Its protein stability index is 0.685 ± 0.026.

Q: How did the protein stability index turn out when TRQRSDRPRAPR was run?
A: Its protein stability index is 0.6523 ± 0.00075.

Q: TRRAAARAVSAR was tested. Which protein stability index did it give?
A: Its protein stability index is 0.7 ± 0.066.

Q: With TRRFGSIINWVG as the sequence, how does the protein stability index read?
A: The protein stability index was 0.59 ± 0.065.

Q: For TRRGPAGNKPRL, which protein stability index is on record?
A: Its protein stability index is 0.749 ± 0.0092.

Q: How did the protein stability index turn out when TRSADGFLGVMV was run?
A: Its protein stability index is 0.739 ± 0.0092.

Q: TRSDILGAERWG was tested. Which protein stability index did it give?
A: Its protein stability index is 0.6794 ± 0.0033.

Q: For TRSQTASRSPTG, which protein stability index is on record?
A: The protein stability index was 0.672 ± 0.017.

Q: Which protein stability index does the source give for TRTELGKRWIRR here?
A: The protein stability index was 0.697 ± 0.061.

Q: TRYKSMRAGVAG was tested. Which protein stability index did it give?
A: The protein stability index was 0.674 ± 0.067.

Q: With TSAEYKIETIFT as the sequence, how does the protein stability index read?
A: The protein stability index was 0.688 ± 0.036.

Q: For TSAPPPPPPPPP, which protein stability index is on record?
A: The protein stability index was 0.608 ± 0.021.

Q: How did the protein stability index turn out when TSAPRGNGKPEQ was run?
A: Its protein stability index is 0.678 ± 0.016.

Q: TSCPPPLAPSYD was tested. Which protein stability index did it give?
A: The protein stability index was 0.6909 ± 0.0045.

Q: Which protein stability index does the source give for TSDPFGRPPETN here?
A: Its protein stability index is 0.643 ± 0.1.

Q: Which protein stability index does the source give for TSGTPSRTHTLR here?
A: Its protein stability index is 0.612 ± 0.025.

Q: Which protein stability index does the source give for TSLAPLPAPLRR here?
A: Its protein stability index is 0.725 ± 0.031.

Q: TSPPPPSPPAHH was tested. Which protein stability index did it give?
A: Its protein stability index is 0.625 ± 0.024.

Q: For TSPPPPSPPPPP, which protein stability index is on record?
A: Its protein stability index is 0.785 ± 0.13.

Q: With TSSEREGHYCVR as the sequence, how does the protein stability index read?
A: Its protein stability index is 0.693 ± 0.034.

Q: For TSTTRRGPRSRF, which protein stability index is on record?
A: Its protein stability index is 0.8168 ± 0.0029.

Q: For TTEESGGEGEGG, which protein stability index is on record?
A: Its protein stability index is 0.664 ± 0.014.

Q: TTKRQKRKKKQR was tested. Which protein stability index did it give?
A: The protein stability index was 0.633 ± 0.015.

Q: How did the protein stability index turn out when TTLATVLRTFPG was run?
A: Its protein stability index is 0.724 ± 0.031.

Q: With TTRALEAPARPN as the sequence, how does the protein stability index read?
A: Its protein stability index is 0.6518 ± 0.0054.

Q: With TTRHPRLHYIDP as the sequence, how does the protein stability index read?
A: The protein stability index was 0.674 ± 0.019.

Q: For TTTRSDALPRGG, which protein stability index is on record?
A: Its protein stability index is 0.713 ± 0.024.

Q: TTTYQLSQTITI was tested. Which protein stability index did it give?
A: Its protein stability index is 0.646 ± 0.041.

Q: For TVATTIRVTKVV, which protein stability index is on record?
A: The protein stability index was 0.582 ± 0.022.

Q: With TVFFVLGTESRV as the sequence, how does the protein stability index read?
A: The protein stability index was 0.664 ± 0.032.

Q: How did the protein stability index turn out when TVFPVLTTVEGL was run?
A: The protein stability index was 0.688 ± 0.03.

Q: Which protein stability index does the source give for TVHTILYVPDEL here?
A: Its protein stability index is 0.677 ± 0.021.
